Test [1] has as its target NHERF3 (endogenous, Caco-2/bbe) (UniProt Q5T2W1). The test can be described thus: HA-NHE3 IP, LC-MS/MS spectral counts. The note with it: reference: NHE3 wild type; sites S719.
In test [2] the target is ezrin (UniProt P15311). The test can be described thus: HA-NHE3 IP, LC-MS/MS spectral counts. The note with it: reference: NHE3 wild type; sites S719.

NHE3 (from UniProt P26432) NHE3-S719A: the “other: normalized exclusive spectrum count” value is recorded as “weaker; reference 4” in test [1] and “weaker; reference 8” in test [2].
